# Key:
# [1] = biological target: MAP7-decorated microtubules (mammalian MAP7) (UniProt O88735); experiment: optical trapping
# [2] = biological target: microtubules (without MAP7); experiment: optical trapping
# [3] = biological target: microtubules (without MAP7); experiment: single-molecule TIRF microscopy
increase of the relative binding rate against microtubules without MAP7 [1],unbinding rate at zero load [1],unbinding rate at zero load [2],mean dwell time [3],Substance
10%,0.0207 s⁻¹,0.0237 s⁻¹,–,dynein on isolated phagosomes (teams of dynein motors) (complex)
–,–,–,114 s,"MAP7 (ensconsin, E-MAP-115), mammalian, with N-terminal FLAG and SNAP-tags (from UniProt O88735 1-730) (natural protein)"
